T1: Trx-PIF4 (Arabidopsis thaliana, UniProt Q8W2F3 1-430)
T1 sequence: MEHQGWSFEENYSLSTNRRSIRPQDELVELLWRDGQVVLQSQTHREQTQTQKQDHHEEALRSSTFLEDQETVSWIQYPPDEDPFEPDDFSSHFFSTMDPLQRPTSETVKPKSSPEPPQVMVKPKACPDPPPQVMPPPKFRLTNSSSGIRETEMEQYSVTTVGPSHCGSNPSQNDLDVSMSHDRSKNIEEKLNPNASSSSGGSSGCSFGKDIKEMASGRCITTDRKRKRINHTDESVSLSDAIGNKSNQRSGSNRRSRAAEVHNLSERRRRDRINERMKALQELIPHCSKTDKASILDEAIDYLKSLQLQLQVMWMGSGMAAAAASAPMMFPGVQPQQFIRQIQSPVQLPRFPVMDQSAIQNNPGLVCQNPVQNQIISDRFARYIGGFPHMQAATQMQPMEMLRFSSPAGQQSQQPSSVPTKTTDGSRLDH

B1: AtM2H (Arabidopsis melatonin 2-hydroxylase) (Arabidopsis thaliana) (protein)
chain: MEETNKSVVNDYFTSAMELTESGDPHVPTRYILPPSQRPMLGPSIGTSTINLPVIDLSFLHDPLLRLCVIHEIELACKGFGFFQVINHGISSAVVKDAQDSATRFFDLPADEKMHLVSDNFQEPVRYGTSINHSTDRVHYWRDFIKHYSHPLSNWINLWPSNPPCYKEKVGKYAEATHVLHKQLIEAISESLGLEKNYLQEEIEEGSQVMAVNCYPACPEPEIALGMPPHSDYGSLTILLQSSEGLQIKDCNNNWVCVPYIEGALIVQLGDQVEVMSNGIYKSVVHRVTVNKDYKRLSFASLHSLPMHKKISPATQLVNENKPAAYGEFSFNDFLDYISRNDITQKRFIDTLRKKNL
B2: M2H E2 (dsDNA)
DNA 1: GATGACTATTTTCATTTGATAATATATCCA
DNA 2: TGGATATATTATCAAATGAAAATAGTCATC
B3: M3H E3 (dsDNA)
DNA 1: CAATGTTAAAGACACATGAACGTTGGGATA
DNA 2: TATCCCAACGTTCATGTGTCTTTAACATTG
B4: M3H E1/E2 (dsDNA)
DNA 1: CATACCATATGTCTTTTATCATCTGTCCTT
DNA 2: AAGGACAGATGATAAAAGACATATGGTATG

Legend:
purified protein = substrate: COc1ccc2[nH]cc(CCNC(C)=O)c2c1; experiment: purified protein; conditions: pH 8.0, GST fusion protein, substrate not named beside the value, implied by M2H activity
Trx-PIF4 [1] = biological target: T1, Trx-PIF4; experiment: EMSA; LightShift Chemiluminescent EMSA Kit, 100 fmol biotin-labeled DNA, 20 min at room temperature, native 6% PAGE in 0.5x TBE; binding buffer, salt and pH not stated; conditions: protein: recombinant; tags: N-terminal Trx (pET32b); label: 3' biotin
Trx-PIF4 [2] = biological target: T1, Trx-PIF4; experiment: EMSA; greatest binding of the probes; LightShift Chemiluminescent EMSA Kit, 100 fmol biotin-labeled DNA, 20 min at room temperature, native 6% PAGE in 0.5x TBE; binding buffer, salt and pH not stated; conditions: protein: recombinant; tags: N-terminal Trx (pET32b); label: 3' biotin

Binder	binding result (Trx-PIF4 [1])	also measured
B1	–	Km (purified protein): 355 µM
B2	binds	–
B3	–	binding result (Trx-PIF4 [2]): binds
B4	binds	–
